Data published in PMC9437119.

Target: T1, Flag-tagged human Fis1 (WT) (human), Q9Y3D6
T1 chain: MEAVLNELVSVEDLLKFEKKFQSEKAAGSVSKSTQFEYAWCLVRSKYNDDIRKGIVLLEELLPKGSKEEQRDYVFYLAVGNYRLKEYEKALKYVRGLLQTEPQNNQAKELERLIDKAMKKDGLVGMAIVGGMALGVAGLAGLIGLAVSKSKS
Test: SDS-resistant oligomers on SDS-PAGE immunoblot of the immunoprecipitate; anti-myc immunoprecipitate of the Mid51/Fis1 complex from HeLa lysate heated 20 min at 55°C, 4-20% Tris-Glycine SDS-PAGE; SDS-resistant complexes detected with anti-myc (Mid51 species) or anti-Flag (Fis1 species); species normalized to monomer
Conditions: remark: other sources report otherwise

B1: Flag-tagged human Fis1 (WT), Q9Y3D6 1-152 (natural protein)
chain: T1 chain
B1 showed a stoichiometry N of 4.
